Measured values: publication PMC3162391 (The Journal of Biological Chemistry, 2011)

Target: the molecule itself
Assay: FRET or BRET

B1: CD5 BRET pair (CD5Luc and CD5GFP) (receptor, human, UniProt P06127 25-495, looked up)
chain: RLSWYDPDFQARLTRSNSKCQGQLEVYLKDGWHMVCSQSWGRSSKQWEDPSQASKVCQRLNCGVPLSLGPFLVTYTPQSSIICYGQLGSFSNCSHSRNDMCHSLGLTCLEPQKTTPPTTRPPPTTTPEPTAPPRLQLVAQSGGQHCAGVVEFYSGSLGGTISYEAQDKTQDLENFLCNNLQCGSFLKHLPETEAGRAQDPGEPREHQPLPIQWKIQNSSCTSLEHCFRKIKPQKSGRVLALLCSGFQPKVQSRLVGGSSICEGTVEVRQGAQWAALCDSSSARSSLRWEEVCREQQCGSVNSYRVLDAGDPTSRGLFCPHQKLSQCHELWERNSYCKKVFVTCQDPNPAGLAAGTVASIILALVLLVVLLVVCGPLAYKKLVKKFRQKKQRQWIGPTGMNQNMSFHRNHTATVRSHAENPTASHVDNEYSQPPRNSHLSAYPALEGALHRSSMQPDNSSDSDYDLHGAQRL
**Q.** How did the “stoichiometry N” value turn out when B1 was run?
**A.** 2
